Laboratory results as given in the DeepSol protein solubility set.

assay: soluble on expression in E. coli; label from the status in PepcDB or PDB records

| Sequence | soluble on expression in E. coli |
| --- | --- |
| MNQPFLSVVIATFNVAEVLRECLHSLASQTFRDFEVVIQDGASTDGTLAVAQEAAGRLPRLSLASVADSGIYDAWNRALPRVTGDWVLFLGSDDTLAGPDVLAQCARRLADLPPQVLYACGDALEVYPDGSSRAVTCTAEGATRRMADHIPFCHSSLWHRACLFEARHFDATLRIAADYDLICRTWPHDGVGHTLGITVTHMGVGGVSSSPAHRLRTQWELVRVAARHGHGAFSRRRLVPLCKAVGLWVLCRLAGRRASVMLDRLRVMRGLPPCWTTADPARVGGRDSARGDALEHHHHHH | not soluble |
| MNQPIGIADSSRPKTNVRLTISANNLMDLDVFSKSDPICLIYEKTSGRKATTTEEITVPTWKDKQWTERGRTEVVMNNLNPQFTKTFLLPYFFEETQLLRFEIYDADSPTVGQDLSSHDFLGRFECVLAQIVSYSTLKAHLGKTGQIGAQWRNKDKNTKTGSITIYAEEDEKAEKIQFDVCGEGLDKKDFFGKSDPYLNFKRKFDDGSTHLIHRTEVKPKTLDPRWATVQINTQTLCAKDGDRPIIIECYDHDKWKKGEEPRGDAKFSRDDLIGTAQTTLNELLRGSSDAVEILLTNEKKKAKKGDKYKCSGTLKIWNSRIVIEPTFLDFISGGTQLDFAVAVDFTASNGPPKSSSSLHFMSADRPNQYELALRSVLSICQHYNSSKTFEAFGFGAKLPNQSSVSAIFPLDLQRGTSEVVGITGVMTAYRHALSNVQLYGPTNFAPIIENVARKAQNMIHDSARYQILLIITDGIISDMHATIRSIISASGLPLSIIIIGVGNEDFEKMHELDSDDALLQQDSRIAQRDIVQFVTMREFLNNGQGLYLDPDVIQENLAREVLYEVPAQLTGYMKQRGFQPRPVDDPWRRDSPPPEFDPILDGTGRRAPMLQAPPAGFQYPVYADTSIASAPPMY | not soluble |
| MNQPLAGYAPAPAGARMENHGNHMLKVAMQTGNDLLARVGSMTAYEGFVQYEPNPPAVRQIAKDWMTGEGAPLMKCSGDGLLYLADYGANVVVINLNGDGISVNATNLLAFDAHLTWGVERVKGLAKFAGQGLWNTKISGQGWVALTSRGKPIVVDCGGGEDETYVDPDALVAWSPNLKVKGKRSFKAQSLIGRGSGEAFQMAFSGQGIVVVQPSEDSTDRLRVRGLEHHHHHH | not soluble |
| MNQTKTTTDDNKNSKPAETESTITVPEWITETINGGSFCHVDLETGTNGWASPPGNVFSLRSHNYFTATKQKSPGGDYLLSLAAVDWLKSTTKKLDHILSRPDNRVIHAFKTSQSRSFIFAVNFQVPGKEHYNLVFYFATQKPIPSDSLLHKFINTDEDSFRNERFKIVSNVVKGPWVVKAAAGKFGAFVAGKAMKCTYYRGDNYFEVDVDISSSAIMTALIRFMLGYVTYLMVDIGFVVEAQTAEELPERLIGGARICHMELSSSFLVDDDEKKSLQPRRRMMGAAEDNDDEI | soluble |
| MNQWDQFLTPYKQAVDELKVKLKGMRKQYEVGEQASPIEFVTGRVKPIASIIDKANKRQIPFDRLREEMYDIAGLRMMCQFVEDIDVVVNILRQRKDFKVIEERDYIRNTKESGYRSYHVIIEYPIETLQGQKFILAEIQIRTLAMNFWATIEHTLRYKYDGAYPDEIQHRLERAAEAAYLLDEEMSEIKDEIQEAQKYYTQKRSKKHEND | not soluble |
| MNRIKSTLTALLLAGSFQASAADQTILNSSYDIARELFVAYNPVFAEHWQQKTGKTVEIKQSHAGSSAQARSILQGLAADVVTFNQVTDVQILHDKGKLIPANWQTLLPNASSPYYSTTAFLVRKGNPKNIQDWSDLVRDDVKSVFPNPKTSGNARYTYLAALGFAQKQFGQDNQVQQDEFLKKFLANVAVFDTGGRGATTSFVERGIGDVLITFESEVNNIRQQYGADDYQVVVPKTSILAEFPVAVVEKVAKRNGTYDVATEYVSYLYSEPAQRLLAEFNYRVHDAKVQAEFAERFPAVELLTVEGIAGGWEQAMQTQFANGAKLDQLLRR | not soluble |
| MNRISFNSFSNMHSLLSSKFQEHYNDIYDWNGNIENIYKANTFISIGYKLLYPLGVLEANFDKEKLKKFLFRICSYYNDIPYHTSLHAAQVAHFSKSMLFMLDMNHKISAIDEFCLHISSLCHDTGHPGLNNYFLINSENNLALTYNDNSVLENYHCSLLFKTLKNPNYNIFEHYPYHIFISCKKNIIKAILSTDMKNHFEYISDFRTSKEFIDYDNLSNDQIWQIFCLILKASDIGHSTLEWNKHLEWTLKINEEFYLQGLLEKSLNIQNSFLCDINTMNKLALSQIDFLKHLCIPLFNELNYICKNNDVYTHCIQPIENNIERWESHKND | soluble |
| MNRTLYTVLFHLGLPLVALRLWLRARKAPAYRQRIGERFASGLPAMQRDGIWVHAVSVGESIAAAPMIRALLVQYPQLPITVTCMTPTGSERIKALFANEPRIQYCYLPYDLPWAAGRFLDHVQPQLGIIMETELWPNHIHQCAKRAIPVVLANARLSERSARGYARFARLTQPMLAEMAWFAVQTEVEAQRFRDLGARAECVVVTGSIKFDLNIDPQLLERAAQLREQWQATQRPVWIAASTHAGEDESVLSAHRTLLASHPDALLILVPRHPERFDSVHALCQQQGFKTVRRSSAQAVTPDVAVLMGDTMGELLFLYALVDIAFVGGSLVPNGGHNLLEPAALAKPVLSGPHLFNFLEIAAMLRTAGALQEVSDATALATAVQRLIDQPQQARSMADAGLAVMKANQGALQRLLDGIERLMAKRRVAEDAERPERHAHAERRHDSAAALEHHHHHH | not soluble |
| MNSDPTRERILHGLITLYILKELVKRPMHGYELQKSMFETTGQALPQGSIYILLKTMKERGFVISESSVNEKGQQLTVYHITDAGKKFLCDHSQALQLARKIIDDLLSTVDIIENRN | soluble |
| MNSILSLIGRDTELFHQDINANEKELQSVVSQSRFLVLGGAGSIGQAVTKEIFKRNPQKLHVVDISENNMVELVRDIRSSFGYINGDFQTFALDIGSIEYDAFIKADGQYDYVLNLSALKHVRSEKDPFTLMRMIDVNVFNTDKTIQQSIDAGAKKYFCVSTDKAANPVNMMGASKRIMEMFLMRKSEEIAISTARFANVAFSDGSLLHGFNQRIQKNQPIVAPNDIKRYFVTPQESGELCLMSCIFGENRDIFFPKLSEALHLISFADIAVKYLKQLGYEPHLCESEDEARELAKTLPAQGKWPCLFTSSDTTGEKDFEEFFTDKETLDMARFDNLGIIKNDSLYQQELLELFEQKIGQMKTDRQWTKEEIVQLFFIMIPDFGHKETGKYLDSKM | soluble |
| MNSITVDFLNDQVFQGPMDGTEDKKDGNPKKSTCEKHWAVIDQHNVAICVQLCSFVEGEEKKCAEYYSDKVGGVLKFGRYSLKTIDVKTDLKEFTDKKGFTLYTVEITNSKKKDAPKKTVDILYFSGWPDHGAPQEAYPALEMLKFCESYKKNVLVHCSAGVGRTGTLVAIKYGIELCLKKKVI | not soluble |
| MNSIVNGLYTFMSTTVVPAVTEQAANLVGGASALAEGATQALTQISQTALEWGSGSEDATASSEVFSWEQQGAAAASSDLQEDKKETTEDVHQEAIGASSPNTSIEWEVIHENPDETGPIRHNQFEMVQNNYEWMKNSK | soluble |
| MNSKKVLFIIFICALTVTGCDTQEQTTIDSGLTLIRATQTLDSLYANYSVSGTCLLRENYPSNVGNYTATYLASEEQKEIPNQYSYLWPYSGTFSAVNALCAATGDESYKTLLDNKVLRGLEKYLDISRSPAGYASYINTASQSDRFYDDNIWLGIDFTDAYLNTKEEKYLKKAQLIWKFIESGADDKLGGGIYWCEQKKVSKNTCSNAPASVFALKMFKAIRDSSYLIKGQELYEWTKKRLQDSTDYLYFDNISLDGKIDKSKYAYNSGQMMQAATLLYQLTGRSHFLKDAQNIAKACYNYFFINFIPEEGEPFKLLKKGDVWFTAVMLRGFIELYQTDHNKTYINSFNQNMDYAWEHVRDEKGLFDIDFSGRTHDDRKWLLTQAAMVEMYARLAVTKLEHHHHHH | not soluble |
| MNSQQDLTMHNRSAAILLRPAAALYGMVMSLRNCLYDQGIFKSWHSPIPVVSVGNITTGGTGKTPLVDWIVKFYEASGIATAIVSRGYGRRTKGVQLVSDGGRLLLGSRDAGDETAMLAARNPRTIVVVAEKRVEGVQFLMHQFADRLPGVIVLDDAFQHRKIARDLDIVVVNAGAPEEIDAMLPAGRLREPLRGLRRAHLIILGKITDDANSATLLQTLRETGKPVIRSKIKPGKLIHVDGSENETNESVKTLAFAGIGAPEGFLHSLKTAGIKIAATKFFRDHEPYTESAIRSIIGEAKRQGLVPVTTEKDWFRIADEPELAEMLRQVGCRYLTITPEFPDGTQELERQLLDVLKRLEHHHHHH | not soluble |
